Reference: US20210246166A1 (Bayer, published 2021)
Numbered stars: 1 amine (or outer) side, 2 acyl side, 3 side chain; on linkers, the order of the positions; unused ones are H or OH. Bridge positions count the residues as written; N and C are the ends. Square brackets hold non-standard residues; d marks the D form. Primed or numbered codes have the meaning given here. Ends that are not written are not given here. TTDS = 1,13-diamino-4,7,10-trioxatridecan-succinamic acid, O=C(CCC(=O)[*:2])NCCCOCCOCCOCCCN[*:1]; Oic = O=C(O)[C@@H]1C[C@@H]2CCCC[C@@H]2N1; Pro‑D2″ = L-Proline (3,4-2H), deuterated; PEG6 = NCCOCCOCCOCCOCCOCCOCCC(=O)O; NMeI = CC[C@H](C)[C@H](NC)C(=O)O; tBuAla = CC(C)(C)C[C@H](N)C(=O)O; PEG5 = NCCOCCOCCOCCOCCOCCC(=O)O; Pen = CC(C)(S)[C@H](N)C(=O)O; NMeA = CN[C@@H](C)C(=O)O; Orn = NCCC[C@H](N)C(=O)O; Abu = CC[C@H](N)C(=O)O; Sar = CNCC(=O)O

B1: ((N-Me)G)-IC+SRSLP-(Oic)-I-(Pen)+IP-(PEG5(22 atoms))-NH2 (peptide)
peptide: [Sar]ICSRSLP[Oic]I[Pen]IP[PEG6]-NH2
modifications: disulfide 3-11; N-terminus assumed
SMILES: CC[C@H](C)[C@H](NC(=O)CNC)C(=O)N[C@H]1CSSC(C)(C)[C@@H](C(=O)N[C@H](C(=O)N2CCC[C@H]2C(=O)NCCOCCOCCOCCOCCOCCOCCC(N)=O)[C@@H](C)CC)NC(=O)[C@H]([C@@H](C)CC)NC(=O)[C@@H]2C[C@@H]3CCCC[C@@H]3N2C(=O)[C@@H]2CCCN2C(=O)[C@H](CC(C)C)NC(=O)[C@H](CO)NC(=O)[C@H](CCCNC(=N)N)NC(=O)[C@H](CO)NC1=O
B2: AIC+SRS-((tBu)A)-PPI-(Pen)+IPD-OH (peptide)
peptide: AICSRS[tBuAla]PPI[Pen]IPD-OH
modifications: disulfide 3-11; N-terminus assumed
SMILES: CC[C@H](C)[C@H](NC(=O)[C@H](C)N)C(=O)N[C@H]1CSSC(C)(C)[C@@H](C(=O)N[C@H](C(=O)N2CCC[C@H]2C(=O)N[C@@H](CC(=O)O)C(=O)O)[C@@H](C)CC)NC(=O)[C@H]([C@@H](C)CC)NC(=O)[C@@H]2CCCN2C(=O)[C@@H]2CCCN2C(=O)[C@H](CC(C)(C)C)NC(=O)[C@H](CO)NC(=O)[C@H](CCCNC(=N)N)NC(=O)[C@H](CO)NC1=O
B3: ((N-Me)G)-IC+SRS-((tBu)A)-PPI-(Pen)+IP-(PEG4(19 atoms))-NH2 (peptide)
peptide: [Sar]ICSRS[tBuAla]PPI[Pen]IP[PEG5]-NH2
modifications: disulfide 3-11; N-terminus assumed
SMILES: CC[C@H](C)[C@H](NC(=O)CNC)C(=O)N[C@H]1CSSC(C)(C)[C@@H](C(=O)N[C@H](C(=O)N2CCC[C@H]2C(=O)NCCOCCOCCOCCOCCOCCC(N)=O)[C@@H](C)CC)NC(=O)[C@H]([C@@H](C)CC)NC(=O)[C@@H]2CCCN2C(=O)[C@@H]2CCCN2C(=O)[C@H](CC(C)(C)C)NC(=O)[C@H](CO)NC(=O)[C@H](CCCNC(=N)N)NC(=O)[C@H](CO)NC1=O
B4: ((N-Me)A)-IC+SRSLP-(Oic)-I-(Pen)+IPQ-NH2 (peptide)
peptide: [NMeA]ICSRSLP[Oic]I[Pen]IPQ-NH2
modifications: disulfide 3-11; N-terminus assumed
SMILES: CC[C@H](C)[C@H](NC(=O)[C@H](C)NC)C(=O)N[C@H]1CSSC(C)(C)[C@@H](C(=O)N[C@H](C(=O)N2CCC[C@H]2C(=O)N[C@@H](CCC(N)=O)C(N)=O)[C@@H](C)CC)NC(=O)[C@H]([C@@H](C)CC)NC(=O)[C@@H]2C[C@@H]3CCCC[C@@H]3N2C(=O)[C@@H]2CCCN2C(=O)[C@H](CC(C)C)NC(=O)[C@H](CO)NC(=O)[C@H](CCCNC(=N)N)NC(=O)[C@H](CO)NC1=O
B5: ((N-Me)G)-IC+SRSLP-(Oic)-I-(Pen)+IP-(TTDS)-NH2 (peptide)
peptide: [Sar]ICSRSLP[Oic]I[Pen]IP[TTDS]-NH2
modifications: disulfide 3-11; N-terminus assumed
SMILES: CC[C@H](C)[C@H](NC(=O)CNC)C(=O)N[C@H]1CSSC(C)(C)[C@@H](C(=O)N[C@H](C(=O)N2CCC[C@H]2C(=O)NCCCOCCOCCOCCCNC(=O)CCC(N)=O)[C@@H](C)CC)NC(=O)[C@H]([C@@H](C)CC)NC(=O)[C@@H]2C[C@@H]3CCCC[C@@H]3N2C(=O)[C@@H]2CCCN2C(=O)[C@H](CC(C)C)NC(=O)[C@H](CO)NC(=O)[C@H](CCCNC(=N)N)NC(=O)[C@H](CO)NC1=O
B6: TIC+SRS-((tBu)A)-PPI-(Pen)+IPD-OH (peptide)
peptide: TICSRS[tBuAla]PPI[Pen]IPD-OH
modifications: disulfide 3-11; N-terminus assumed
SMILES: CC[C@H](C)[C@H](NC(=O)[C@@H](N)[C@@H](C)O)C(=O)N[C@H]1CSSC(C)(C)[C@@H](C(=O)N[C@H](C(=O)N2CCC[C@H]2C(=O)N[C@@H](CC(=O)O)C(=O)O)[C@@H](C)CC)NC(=O)[C@H]([C@@H](C)CC)NC(=O)[C@@H]2CCCN2C(=O)[C@@H]2CCCN2C(=O)[C@H](CC(C)(C)C)NC(=O)[C@H](CO)NC(=O)[C@H](CCCNC(=N)N)NC(=O)[C@H](CO)NC1=O
B7: ((N-Me)A)-IC+SRSLP-(Oic)-I-(Pen)+I-OH (peptide)
peptide: [NMeA]ICSRSLP[Oic]I[Pen]I-OH
modifications: disulfide 3-11; N-terminus assumed
SMILES: CC[C@H](C)[C@H](NC(=O)[C@H]1NC(=O)[C@H]([C@@H](C)CC)NC(=O)[C@@H]2C[C@@H]3CCCC[C@@H]3N2C(=O)[C@@H]2CCCN2C(=O)[C@H](CC(C)C)NC(=O)[C@H](CO)NC(=O)[C@H](CCCNC(=N)N)NC(=O)[C@H](CO)NC(=O)[C@@H](NC(=O)[C@@H](NC(=O)[C@H](C)NC)[C@@H](C)CC)CSSC1(C)C)C(=O)O
B8: ((N-Me)G)-((N-Me)I)-C+SRS-((tBu)A)-PPI-(Pen)+IP-NH2 (peptide)
peptide: [Sar][NMeI]CSRS[tBuAla]PPI[Pen]IP-NH2
modifications: disulfide 3-11; N-terminus assumed
SMILES: CC[C@H](C)[C@@H]1NC(=O)[C@@H]2CCCN2C(=O)[C@@H]2CCCN2C(=O)[C@H](CC(C)(C)C)NC(=O)[C@H](CO)NC(=O)[C@H](CCCNC(=N)N)NC(=O)[C@H](CO)NC(=O)[C@@H](NC(=O)[C@H]([C@@H](C)CC)N(C)C(=O)CNC)CSSC(C)(C)[C@@H](C(=O)N[C@H](C(=O)N2CCC[C@H]2C(N)=O)[C@@H](C)CC)NC1=O
B9: ((N-Me)A)-IC+SRSLP-(Oic)-I-(Pen)+IP-NH2 (peptide)
peptide: [NMeA]ICSRSLP[Oic]I[Pen]IP-NH2
modifications: disulfide 3-11; N-terminus assumed
SMILES: CC[C@H](C)[C@H](NC(=O)[C@H](C)NC)C(=O)N[C@H]1CSSC(C)(C)[C@@H](C(=O)N[C@H](C(=O)N2CCC[C@H]2C(N)=O)[C@@H](C)CC)NC(=O)[C@H]([C@@H](C)CC)NC(=O)[C@@H]2C[C@@H]3CCCC[C@@H]3N2C(=O)[C@@H]2CCCN2C(=O)[C@H](CC(C)C)NC(=O)[C@H](CO)NC(=O)[C@H](CCCNC(=N)N)NC(=O)[C@H](CO)NC1=O
B10: A-(Abu)-C+SRS-((tBu)A)-PPI-(Pen)+IPD-NH2 (peptide)
peptide: A[Abu]CSRS[tBuAla]PPI[Pen]IPD-NH2
modifications: disulfide 3-11; N-terminus assumed
SMILES: CC[C@H](NC(=O)[C@H](C)N)C(=O)N[C@H]1CSSC(C)(C)[C@@H](C(=O)N[C@H](C(=O)N2CCC[C@H]2C(=O)N[C@@H](CC(=O)O)C(N)=O)[C@@H](C)CC)NC(=O)[C@H]([C@@H](C)CC)NC(=O)[C@@H]2CCCN2C(=O)[C@@H]2CCCN2C(=O)[C@H](CC(C)(C)C)NC(=O)[C@H](CO)NC(=O)[C@H](CCCNC(=N)N)NC(=O)[C@H](CO)NC1=O
B11: TIC+SRS-((tBu)A)-PPI-(Pen)+IPD-NH2 (peptide)
peptide: TICSRS[tBuAla]PPI[Pen]IPD-NH2
modifications: disulfide 3-11; N-terminus assumed
SMILES: CC[C@H](C)[C@H](NC(=O)[C@@H](N)[C@@H](C)O)C(=O)N[C@H]1CSSC(C)(C)[C@@H](C(=O)N[C@H](C(=O)N2CCC[C@H]2C(=O)N[C@@H](CC(=O)O)C(N)=O)[C@@H](C)CC)NC(=O)[C@H]([C@@H](C)CC)NC(=O)[C@@H]2CCCN2C(=O)[C@@H]2CCCN2C(=O)[C@H](CC(C)(C)C)NC(=O)[C@H](CO)NC(=O)[C@H](CCCNC(=N)N)NC(=O)[C@H](CO)NC1=O
B12: (Orn)-IC+SRS-((tBu)A)-PPI-(Pen)+IP-OH (peptide)
peptide: [Orn]ICSRS[tBuAla]PPI[Pen]IP-OH
modifications: disulfide 3-11; N-terminus assumed
SMILES: CC[C@H](C)[C@H](NC(=O)[C@@H](N)CCCN)C(=O)N[C@H]1CSSC(C)(C)[C@@H](C(=O)N[C@H](C(=O)N2CCC[C@H]2C(=O)O)[C@@H](C)CC)NC(=O)[C@H]([C@@H](C)CC)NC(=O)[C@@H]2CCCN2C(=O)[C@@H]2CCCN2C(=O)[C@H](CC(C)(C)C)NC(=O)[C@H](CO)NC(=O)[C@H](CCCNC(=N)N)NC(=O)[C@H](CO)NC1=O
B13: AIC+SRSLP-(Oic)-I-(Pen)+IPE-OH (peptide)
peptide: AICSRSLP[Oic]I[Pen]IPE-OH
modifications: disulfide 3-11; N-terminus assumed
SMILES: CC[C@H](C)[C@H](NC(=O)[C@H](C)N)C(=O)N[C@H]1CSSC(C)(C)[C@@H](C(=O)N[C@H](C(=O)N2CCC[C@H]2C(=O)N[C@@H](CCC(=O)O)C(=O)O)[C@@H](C)CC)NC(=O)[C@H]([C@@H](C)CC)NC(=O)[C@@H]2C[C@@H]3CCCC[C@@H]3N2C(=O)[C@@H]2CCCN2C(=O)[C@H](CC(C)C)NC(=O)[C@H](CO)NC(=O)[C@H](CCCNC(=N)N)NC(=O)[C@H](CO)NC1=O

Experiments:
[1] = molecular target: T1, recombinant human MASP1 active protease (amino acids 297-699, C-terminal His Tag) (human, UniProt P48740 297-699); assay: cell-based or functional assay
T1 sequence: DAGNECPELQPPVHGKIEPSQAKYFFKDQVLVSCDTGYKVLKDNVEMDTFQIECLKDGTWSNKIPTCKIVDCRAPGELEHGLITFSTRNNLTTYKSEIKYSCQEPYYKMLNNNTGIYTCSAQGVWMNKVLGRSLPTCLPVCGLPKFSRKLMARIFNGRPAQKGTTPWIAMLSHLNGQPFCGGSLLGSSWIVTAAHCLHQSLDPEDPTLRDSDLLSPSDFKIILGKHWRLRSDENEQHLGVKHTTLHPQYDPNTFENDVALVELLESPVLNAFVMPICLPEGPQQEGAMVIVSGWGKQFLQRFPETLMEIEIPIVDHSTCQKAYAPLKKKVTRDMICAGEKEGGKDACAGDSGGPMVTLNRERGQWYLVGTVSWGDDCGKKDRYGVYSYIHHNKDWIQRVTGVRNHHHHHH

[2] = molecular target: recombinant human MASP2 active protease (amino acids 297-686, C-terminal His Tag) (human, UniProt O00187 297-686); assay: cell-based or functional assay
Sequence of recombinant human MASP2 active protease (amino acids 297-686, C-terminal His Tag) (O00187 other isoform, or with tags, fused parts or gaps limits assumed): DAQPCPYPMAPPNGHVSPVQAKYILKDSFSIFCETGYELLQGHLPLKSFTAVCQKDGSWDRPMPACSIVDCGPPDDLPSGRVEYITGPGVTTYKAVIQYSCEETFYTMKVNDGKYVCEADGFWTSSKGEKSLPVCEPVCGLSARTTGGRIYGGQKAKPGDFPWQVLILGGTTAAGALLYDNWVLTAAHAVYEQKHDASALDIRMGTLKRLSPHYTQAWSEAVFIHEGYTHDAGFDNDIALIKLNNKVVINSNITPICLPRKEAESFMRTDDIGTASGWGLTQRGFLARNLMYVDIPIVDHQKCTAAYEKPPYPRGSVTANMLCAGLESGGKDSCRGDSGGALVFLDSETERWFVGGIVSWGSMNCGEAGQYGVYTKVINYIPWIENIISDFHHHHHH

Binder	human MASP1 IC50 [1] [nM]	human MASP2 IC50 [2] [nM]
B1	3.5	90
B2	1.2	37
B3	3.6	60
[2‑(Diethylamino)acetyl]ICSRS[tBuAla]PPI[Pen]IPD-NH2 (disulfide 3-11) [(2-(Diethylamino)acetyl)-IC+SRS-((tBu)A)-PPI-(Pen)+IPD-NH2]	3.5	98
B4	3.5	190
B5	3.4	87
B6	3.7	56
B7	3.4	410
B8	3.7	590
B9	3.4	99
B10	3.7	68
B11	3.6	74.5
AICSRSL[Pro‑D2″][Oic]I[Pen]IPD-OH (disulfide 3-11) [AIC+SRSL-(Pro-D2)-(Oic)-I-(Pen)+IPD-OH]	2.13	126
B12	3.6	130
B13	3.5	140
